Laboratory results: article PMC12380274

How the values were obtained:
[1] = target: chicken p32/C1QBP/gC1qR clone M9 (residues 76-278) fused to the GAL4 activation domain (UniProt A0A8V1AMS0); test: yeast two-hybrid, liquid β-galactosidase (ONPG) assay; settings: triplicates over three independent experiments; for response: parent: 16.2
[2] = target: full-length pUL47 (RB-1B) with SR motif 3 mutated to AA, fused to the GAL4 DNA-binding domain (Marek's Disease Virus (Gallid alphaherpesvirus 2), strain RB-1B); test: two-hybrid; SR mutants and Δ71-185 of pUL47 in pGBKT7 against p32(M9); β-galactosidase coloration and liquid β-galactosidase quantification relative to full-length pUL47 (1-808), triplicates over three experiments (Fig 4B, 4C)
[3] = target: full-length pUL47 (RB-1B) with SR motif 4 mutated to AA, fused to the GAL4 DNA-binding domain (Marek's Disease Virus (Gallid alphaherpesvirus 2), strain RB-1B); test: as above
[4] = target: pUL47 (RB-1B) domain 71-185 fused to the GAL4 DNA-binding domain (Marek's Disease Virus (Gallid alphaherpesvirus 2), strain RB-1B); test: as above

Substance | response [1] | further results
pUL47 (RB-1B) domain 71-185 fused to the GAL4 DNA-binding domain SR2 (SR motif 2, Ser-Arg to Ala-Ala) | 13 % vs 1-808 | 
pUL47 (RB-1B) domain 71-185 fused to the GAL4 DNA-binding domain SR1 (SR motif 1, Ser-Arg to Ala-Ala) | 25.4 % vs 1-808 | 
pUL47 (RB-1B) domain 71-185 fused to the GAL4 DNA-binding domain SR1 (Ser-Arg to Ala-Ala); SR2 (Ser-Arg to Ala-Ala) | 24 % vs 1-808 | 
pUL47 (RB-1B) domain 71-185 fused to the GAL4 DNA-binding domain SR5 (Ser-Arg to Ala-Ala); SR6 (Ser-Arg to Ala-Ala) | 10.1 % vs 1-808 | 
pUL47 (RB-1B) domain 71-185 fused to the GAL4 DNA-binding domain SR3 (Ser-Arg to Ala-Ala); SR4 (Ser-Arg to Ala-Ala) | 3.7 % vs 1-808 | 
pUL47 (RB-1B) domain 71-185 fused to the GAL4 DNA-binding domain SR6 (SR motif 6, Ser-Arg to Ala-Ala) | 8.2 % vs 1-808 | 
pUL47 of Marek's Disease Virus (RB-1B), full length, fused to the GAL4 DNA-binding domain (pGBKT7-UL47) SR3 (Ser-Arg to Ala-Ala); SR4 (Ser-Arg to Ala-Ala) |  | percent of parent ([1]; parent: 100): 71.2 % vs 1-808
pUL47 (RB-1B) domain 71-185 fused to the GAL4 DNA-binding domain SR5 (SR motif 5, Ser-Arg to Ala-Ala) | 20.4 % vs 1-808 | 
chicken p32/C1QBP/gC1qR clone M9 (residues 76-278) fused to the GAL4 activation domain (from UniProt A0A8V1AMS0 76-278) (domain or fragment) |  | reduction of β-galactosidase signal against full-length pUL47 [2]: 30%; reduction of β-galactosidase signal against full-length pUL47 [3]: 30%; β-galactosidase signal, percent of full-length pUL47 [4]: 16%
